The values below come from PMC3334620.

For the first data set, the target named is T1, Sko1 (Saccharomyces cerevisiae) (UniProt Q02100).
T1 sequence: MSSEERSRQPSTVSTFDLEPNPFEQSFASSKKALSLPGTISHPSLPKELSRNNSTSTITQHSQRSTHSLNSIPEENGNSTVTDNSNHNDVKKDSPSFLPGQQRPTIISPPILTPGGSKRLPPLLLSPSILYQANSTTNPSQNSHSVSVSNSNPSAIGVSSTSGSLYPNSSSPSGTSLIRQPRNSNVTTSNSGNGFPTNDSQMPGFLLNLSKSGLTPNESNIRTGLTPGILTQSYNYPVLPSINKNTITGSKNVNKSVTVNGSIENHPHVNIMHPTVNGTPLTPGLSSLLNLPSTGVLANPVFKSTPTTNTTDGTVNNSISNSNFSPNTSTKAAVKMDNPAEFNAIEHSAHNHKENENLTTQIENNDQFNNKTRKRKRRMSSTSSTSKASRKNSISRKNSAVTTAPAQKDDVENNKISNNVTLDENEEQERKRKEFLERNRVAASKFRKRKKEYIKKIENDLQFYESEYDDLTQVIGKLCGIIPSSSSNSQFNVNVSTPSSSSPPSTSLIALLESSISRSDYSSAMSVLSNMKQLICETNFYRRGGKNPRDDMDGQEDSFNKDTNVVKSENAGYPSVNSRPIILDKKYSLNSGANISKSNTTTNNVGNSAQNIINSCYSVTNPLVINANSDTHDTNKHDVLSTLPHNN
To be noted: 200 nM.
The sequence “AATGACGT (double strand) [8-mer AATGACGT]” registered a binding signal (PBM E-score (-0.5 to 0.5)) of 0.498.

Sequence “ACGTCATA (double strand) [8-mer ACGTCATA]” had a binding signal (PBM E-score (-0.5 to 0.5)) of 0.498.

As to “ACGTCATC (double strand) [8-mer ACGTCATC]”, the binding signal (PBM E-score (-0.5 to 0.5)) stood at 0.498.

Sequence “ACGTCATG (double strand) [8-mer ACGTCATG]” gave a binding signal (PBM E-score (-0.5 to 0.5)) of 0.497.

“ATACGTCA (double strand) [8-mer ATACGTCA]”: the binding signal (PBM E-score (-0.5 to 0.5)) turned out to be 0.494.

“ATGACGTA (double strand) [8-mer ATGACGTA]” had a binding signal (PBM E-score (-0.5 to 0.5)) of 0.5.

For “ATGACGTC (double strand) [8-mer ATGACGTC]”, the binding signal (PBM E-score (-0.5 to 0.5)) amounted to 0.497.

“ATGACGTG (double strand) [8-mer ATGACGTG]” showed a binding signal (PBM E-score (-0.5 to 0.5)) of 0.496.

“CTACGTCA (double strand) [8-mer CTACGTCA]” returned a binding signal (PBM E-score (-0.5 to 0.5)) of 0.493.

In turn, “GTGACGTA (double strand) [8-mer GTGACGTA]” showed a binding signal (PBM E-score (-0.5 to 0.5)) of 0.494.

In turn, “TGACGTCA (double strand) [8-mer TGACGTCA]” displayed a binding signal (PBM E-score (-0.5 to 0.5)) of 0.499.

Another data set addresses T2, Stb5 (Saccharomyces cerevisiae) (UniProt P38699).
T2 sequence: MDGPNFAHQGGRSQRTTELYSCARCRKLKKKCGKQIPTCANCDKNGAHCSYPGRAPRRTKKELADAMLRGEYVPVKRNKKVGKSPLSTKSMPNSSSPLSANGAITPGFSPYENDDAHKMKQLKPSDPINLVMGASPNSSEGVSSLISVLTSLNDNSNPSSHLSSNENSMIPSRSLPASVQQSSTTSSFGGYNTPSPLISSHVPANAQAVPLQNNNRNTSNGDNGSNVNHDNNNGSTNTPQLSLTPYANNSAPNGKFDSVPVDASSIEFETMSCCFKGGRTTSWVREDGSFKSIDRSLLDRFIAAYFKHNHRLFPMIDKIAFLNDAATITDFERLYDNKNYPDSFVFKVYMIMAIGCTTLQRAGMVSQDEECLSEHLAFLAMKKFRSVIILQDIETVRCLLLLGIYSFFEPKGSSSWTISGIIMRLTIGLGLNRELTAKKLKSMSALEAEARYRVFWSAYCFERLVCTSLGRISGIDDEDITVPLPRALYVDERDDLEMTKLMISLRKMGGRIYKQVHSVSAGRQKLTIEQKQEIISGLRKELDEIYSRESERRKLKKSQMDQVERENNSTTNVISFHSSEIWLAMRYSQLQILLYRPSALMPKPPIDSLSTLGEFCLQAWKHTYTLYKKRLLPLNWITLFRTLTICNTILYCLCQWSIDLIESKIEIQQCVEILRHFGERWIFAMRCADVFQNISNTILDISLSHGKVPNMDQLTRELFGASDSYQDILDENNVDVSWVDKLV
The settings on record: 200 nM.
“AAACACCG (double strand) [8-mer AAACACCG]” displayed a binding signal (PBM E-score (-0.5 to 0.5)) of 0.491.

“AACACCGC (double strand) [8-mer AACACCGC]”: the binding signal (PBM E-score (-0.5 to 0.5)) came to 0.48.

The sequence “AACCCCGC (double strand) [8-mer AACCCCGC]” returned a binding signal (PBM E-score (-0.5 to 0.5)) of 0.484.

Turning to “CGGACTTA (double strand) [8-mer CGGACTTA]”, the binding signal (PBM E-score (-0.5 to 0.5)) stood at 0.483.

In turn, “CGGAGATA (double strand) [8-mer CGGAGATA]” registered a binding signal (PBM E-score (-0.5 to 0.5)) of 0.48.

In the case of “CGGAGTTA (double strand) [8-mer CGGAGTTA]”, the binding signal (PBM E-score (-0.5 to 0.5)) amounted to 0.487.

The sequence “CGGCACTA (double strand) [8-mer CGGCACTA]” returned a binding signal (PBM E-score (-0.5 to 0.5)) of 0.481.

Turning to “CGGCATTA (double strand) [8-mer CGGCATTA]”, the binding signal (PBM E-score (-0.5 to 0.5)) is 0.489.

Turning to “CGGCCTTA (double strand) [8-mer CGGCCTTA]”, the binding signal (PBM E-score (-0.5 to 0.5)) came out at 0.481.

The sequence “CGGCGTTA (double strand) [8-mer CGGCGTTA]” showed a binding signal (PBM E-score (-0.5 to 0.5)) of 0.49.

In the case of “CGGGGTTA (double strand) [8-mer CGGGGTTA]”, the binding signal (PBM E-score (-0.5 to 0.5)) was 0.495.

“CGGTCTTA (double strand) [8-mer CGGTCTTA]” displayed a binding signal (PBM E-score (-0.5 to 0.5)) of 0.48.

In the case of “CGGTGATA (double strand) [8-mer CGGTGATA]”, the binding signal (PBM E-score (-0.5 to 0.5)) is 0.488.

“CGGTGCTA (double strand) [8-mer CGGTGCTA]” registered a binding signal (PBM E-score (-0.5 to 0.5)) of 0.488.

“CGGTGTTA (double strand) [8-mer CGGTGTTA]” gave a binding signal (PBM E-score (-0.5 to 0.5)) of 0.496.

The next data set addresses T3, Stp1 (Saccharomyces cerevisiae) (UniProt Q00947).
T3 sequence: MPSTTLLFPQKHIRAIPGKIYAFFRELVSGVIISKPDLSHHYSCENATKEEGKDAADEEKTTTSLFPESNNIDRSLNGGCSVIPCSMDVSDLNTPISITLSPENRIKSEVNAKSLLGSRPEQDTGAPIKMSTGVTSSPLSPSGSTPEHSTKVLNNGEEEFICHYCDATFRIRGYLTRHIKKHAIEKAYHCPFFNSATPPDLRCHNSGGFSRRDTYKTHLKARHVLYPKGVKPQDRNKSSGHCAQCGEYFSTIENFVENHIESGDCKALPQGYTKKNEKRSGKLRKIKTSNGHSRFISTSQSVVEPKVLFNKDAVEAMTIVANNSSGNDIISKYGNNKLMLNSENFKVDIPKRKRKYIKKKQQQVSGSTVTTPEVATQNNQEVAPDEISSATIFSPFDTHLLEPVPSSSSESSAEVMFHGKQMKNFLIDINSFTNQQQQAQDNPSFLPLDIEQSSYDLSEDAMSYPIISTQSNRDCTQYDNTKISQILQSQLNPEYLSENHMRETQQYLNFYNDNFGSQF
To be noted: 200 nM.
In the case of “ACACGGCA (double strand) [8-mer ACACGGCA]”, the binding signal (PBM E-score (-0.5 to 0.5)) worked out at 0.49.

For “ACGGCACT (double strand) [8-mer ACGGCACT]”, the binding signal (PBM E-score (-0.5 to 0.5)) amounted to 0.489.

Consider “ACGGCGCC (double strand) [8-mer ACGGCGCC]”, for which the binding signal (PBM E-score (-0.5 to 0.5)) came out at 0.49.

Take “ACGGCGCG (double strand) [8-mer ACGGCGCG]”: the binding signal (PBM E-score (-0.5 to 0.5)) was 0.492.

Consider “ATACGGCG (double strand) [8-mer ATACGGCG]”, for which the binding signal (PBM E-score (-0.5 to 0.5)) worked out at 0.49.

Sequence “CACGGCAC (double strand) [8-mer CACGGCAC]” had a binding signal (PBM E-score (-0.5 to 0.5)) of 0.491.

As to “CACGGCGC (double strand) [8-mer CACGGCGC]”, the binding signal (PBM E-score (-0.5 to 0.5)) stood at 0.493.

As for “CGCACGGC (double strand) [8-mer CGCACGGC]”, the binding signal (PBM E-score (-0.5 to 0.5)) amounted to 0.488.

Take “CGCCGTGC (double strand) [8-mer CGCCGTGC]”: the binding signal (PBM E-score (-0.5 to 0.5)) worked out at 0.493.

“CGCGGCAC (double strand) [8-mer CGCGGCAC]” came in with a binding signal (PBM E-score (-0.5 to 0.5)) of 0.49.

In turn, “CGCGGCGC (double strand) [8-mer CGCGGCGC]” returned a binding signal (PBM E-score (-0.5 to 0.5)) of 0.492.

In turn, “GCACGGCA (double strand) [8-mer GCACGGCA]” gave a binding signal (PBM E-score (-0.5 to 0.5)) of 0.49.

In turn, “GCGCCGCA (double strand) [8-mer GCGCCGCA]” registered a binding signal (PBM E-score (-0.5 to 0.5)) of 0.491.

Regarding “GCGCCGTA (double strand) [8-mer GCGCCGTA]”, the binding signal (PBM E-score (-0.5 to 0.5)) worked out at 0.495.

“GTGCCGTA (double strand) [8-mer GTGCCGTA]” showed a binding signal (PBM E-score (-0.5 to 0.5)) of 0.493.

Another data set concerns the target T4, Sut1 (Saccharomyces cerevisiae) (UniProt P53032).
T4 sequence: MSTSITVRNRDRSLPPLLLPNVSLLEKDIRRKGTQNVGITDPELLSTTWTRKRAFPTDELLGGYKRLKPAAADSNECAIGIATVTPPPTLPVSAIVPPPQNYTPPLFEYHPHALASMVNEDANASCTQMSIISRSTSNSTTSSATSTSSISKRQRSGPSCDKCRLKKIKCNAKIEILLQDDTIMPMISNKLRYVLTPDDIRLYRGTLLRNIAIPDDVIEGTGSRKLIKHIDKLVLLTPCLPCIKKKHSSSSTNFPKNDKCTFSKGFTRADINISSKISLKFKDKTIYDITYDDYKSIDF
To be noted: 200 nM.
On to “AAACTCCG (double strand) [8-mer AAACTCCG]”, for which the binding signal (PBM E-score (-0.5 to 0.5)) came out at 0.498.

On to “AAAGTCCG (double strand) [8-mer AAAGTCCG]”, for which the binding signal (PBM E-score (-0.5 to 0.5)) amounted to 0.496.

In turn, “AACTCCGA (double strand) [8-mer AACTCCGA]” came in with a binding signal (PBM E-score (-0.5 to 0.5)) of 0.499.

In turn, “AACTCCGG (double strand) [8-mer AACTCCGG]” gave a binding signal (PBM E-score (-0.5 to 0.5)) of 0.499.

For the sequence “AACTCCGT (double strand) [8-mer AACTCCGT]”, the binding signal (PBM E-score (-0.5 to 0.5)) was 0.496.

Regarding “AAGTCCGA (double strand) [8-mer AAGTCCGA]”, the binding signal (PBM E-score (-0.5 to 0.5)) came to 0.498.

On to “AAGTCCGG (double strand) [8-mer AAGTCCGG]”, for which the binding signal (PBM E-score (-0.5 to 0.5)) stood at 0.497.

As to “ACTCCGAA (double strand) [8-mer ACTCCGAA]”, the binding signal (PBM E-score (-0.5 to 0.5)) was 0.495.

As to “ACTCCGAG (double strand) [8-mer ACTCCGAG]”, the binding signal (PBM E-score (-0.5 to 0.5)) was 0.494.

“CAACTCCG (double strand) [8-mer CAACTCCG]” registered a binding signal (PBM E-score (-0.5 to 0.5)) of 0.497.

On to “CAAGTCCG (double strand) [8-mer CAAGTCCG]”, for which the binding signal (PBM E-score (-0.5 to 0.5)) amounted to 0.492.

Sequence “CGGACTTC (double strand) [8-mer CGGACTTC]” had a binding signal (PBM E-score (-0.5 to 0.5)) of 0.496.

As to “CGGAGTTA (double strand) [8-mer CGGAGTTA]”, the binding signal (PBM E-score (-0.5 to 0.5)) turned out to be 0.495.

With “CGGAGTTC (double strand) [8-mer CGGAGTTC]”, the binding signal (PBM E-score (-0.5 to 0.5)) is 0.498.
